Values belong to the substance of their own block, whether it stands above or below them.
Assays:
[1] = molecular target: recombinant mouse FcRn (mouse) (UniProt Q61559)
[2] = molecular target: recombinant human FcRn (human) (UniProt P55899)
[3] = molecular target: hIgG1 (anti-hsIL-6R antibody with wild-type human IgG1 constant region) (human); assay: SPR; KD at pH 6.0 (Table 1); set-up told only for pH 7.0: antibody variant captured on Protein L on a CM4 chip, FcRn injected
[4] = molecular target: hIgG1 Fc variant v2 (M252W/N434W) (human); assay: as above
[5] = molecular target: hIgG1 Fc variant v3 (M252Y/N434Y) (human); assay: as above
[6] = molecular target: hIgG1 Fc variant v5 (M252Y/T307Q/Q311A/N434Y) (human); assay: as above
[7] = molecular target: hIgG1 Fc variant v6 (M252Y/V308P/N434Y) (human); assay: as above
[8] = molecular target: hIgG1 Fc variant v4 (M252Y/N286E/N434Y) (human); assay: as above
[9] = molecular target: hIgG1 (anti-hsIL-6R antibody with wild-type human IgG1 constant region) (human); assay: SPR; Biacore T200; antibody variant captured on Protein L immobilised on a CM4 chip, FcRn injected over the flow cell; pH 7.0
[10] = molecular target: hIgG1 Fc variant v2 (M252W/N434W) (human); assay: as above
[11] = molecular target: hIgG1 Fc variant v3 (M252Y/N434Y) (human); assay: as above
[12] = molecular target: hIgG1 Fc variant v5 (M252Y/T307Q/Q311A/N434Y) (human); assay: as above
[13] = molecular target: hIgG1 Fc variant v6 (M252Y/V308P/N434Y) (human); assay: as above
[14] = molecular target: hIgG1 Fc variant v1 (I332V/N434Y) (human); assay: SPR; KD at pH 6.0 (Table 1); set-up told only for pH 7.0: antibody variant captured on Protein L on a CM4 chip, FcRn injected
[15] = molecular target: hIgG1 Fc variant v1 (I332V/N434Y) (human); assay: SPR; Biacore T200; antibody variant captured on Protein L immobilised on a CM4 chip, FcRn injected over the flow cell; pH 7.0

total hsIL-6R plasma concentration after PH-v1, 1 mg/kg i.v., normal mice steady-state model (reduction below the baseline) [1]: 150 fold
Substance: hIgG1 Fc variant v1 (I332V/N434Y) (antibody)

fold decrease in total hsIL-6R plasma concentration after PH-v4 against NPH-IgG1, 1 mg/kg i.v. with 1 g/kg hIgG, hFcRn-Tgm steady-state model [2]: 50 fold
Substance: hIgG1 Fc variant v4 (M252Y/N286E/N434Y) (antibody)

Kd [3]: 1380 nM
Kd [4]: 6 nM
Kd [5]: 15 nM
Kd [6]: 5 nM
Kd [7]: 3 nM
Kd [8]: 8 nM
Kd [9]: 88000 nM
Kd [10]: 155 nM
Kd [11]: 288 nM
Kd [12]: 77 nM
Kd [13]: 35 nM
Substance: recombinant human FcRn (from UniProt P55899 24-365) (receptor)

Kd [3]: 237 nM
Kd [14]: 3 nM
Kd [9]: 3920 nM
Kd [15]: 52 nM
Substance: recombinant mouse FcRn (from UniProt Q61559 22-365) (receptor)
